# Values quoted from earlier work, collected in publication PMC5529358.
# Experiments:
# [1] = target: insulin receptor isoform A isoform A (Homo sapiens) (UniProt P06213)
# [2] = target: insulin receptor isoform B isoform B (Homo sapiens) (UniProt P06213)
# Chain of insulin (P01308 90-110): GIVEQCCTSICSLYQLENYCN
substance,measurement,setting,value
IGF-1 (from UniProt P05019),Kd,[1],0.12 µM
insulin (from UniProt P01308),Kd,[2],0.0014 µM
